Our source for the binding result and Kd values is patent publication US20240270851A1 (US Dept. of Health and Human Services, published 2024).

Test [1] deals with T1, mouse PD-L1-His (mouse, UniProt Q9EP73 19-237).
T1 construct: Bought recombinant protein; also called mPD-L1; recombinant mouse PD-L1-His; not shown: His tag
Briefly: monoclonal phage ELISA.

Another test addresses T2, human B7-H3 (human, UniProt Q5ZPR3 29-461, limits assumed).
T2 sequence (looked up): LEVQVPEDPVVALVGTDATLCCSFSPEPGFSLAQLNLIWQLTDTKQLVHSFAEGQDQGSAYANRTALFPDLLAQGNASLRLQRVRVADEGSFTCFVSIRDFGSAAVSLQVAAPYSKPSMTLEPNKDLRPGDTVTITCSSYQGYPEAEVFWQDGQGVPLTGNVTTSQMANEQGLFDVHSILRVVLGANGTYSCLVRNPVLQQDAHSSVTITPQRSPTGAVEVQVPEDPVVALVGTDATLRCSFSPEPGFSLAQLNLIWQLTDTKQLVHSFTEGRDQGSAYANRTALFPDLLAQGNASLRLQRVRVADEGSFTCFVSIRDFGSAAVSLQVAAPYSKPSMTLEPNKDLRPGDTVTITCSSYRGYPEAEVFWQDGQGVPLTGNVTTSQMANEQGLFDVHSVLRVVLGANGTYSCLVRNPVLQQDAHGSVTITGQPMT
Briefly: ELISA on coated human B7-H3.

The target in test [2] is T3, mouse PD-L1 on murine melanoma cell line B8979HC (mouse, UniProt Q9EP73 19-290).
T3 construct: whole, on cells; also called native PD-L1; mouse antigen
Briefly: flow cytometry on murine melanoma cells B8979HC (column 'Mouse').

In test [3] the target is T1, mouse PD-L1-His. Briefly: monoclonal phage ELISA on coated antigen, detected with anti-M13-HRP. How it is done: (§1) The phage ELISA was performed as previously described (Feng et al., Antib Ther 2019; 2(1):1-11). Briefly, a Nunc 96-well Maxisorp plate was coated with 5 μg/ml antigenic proteins, including mouse PD-L1-His, mouse PD-L1-hFc, human PD-L1-His, human PD-L1-hFc, and the irrelevant antigen human IgG and PBS in 50 μl PBS per well overnight at 4° C. The plate was blocked with 2% BSA in PBS for 1 hour at room temperature. Pre-blocked phage supernatant was then added into the plate. The binding activity was determined with a horseradish peroxidase (HRP)-conjugated mouse anti-M13 antibody (GE Healthcare).

Another test has as its target T4, mouse PD-L1-hFc (mouse, UniProt Q9EP73 19-237, limits assumed).
T4 construct: also called mPD-L1 hFc-tag format; not shown: human Fc tag (hFc)
The test is described as above. How it is done:
as §1

Test [4] concerns the target T5, peptide #19 of the hPD-L1 ECD peptide array (human).
T5 construct: 18-mer synthetic peptide from human PD-L1
T5 peptide: TTNSKREEKLFNVTSTLR
Briefly: peptide-scanning ELISA on 24 coated hPD-L1 ECD peptides, detected with anti-flag-HRP. How it is done:
To predict the binding epitope of anti-PD-L1 nanobodies, a total of 24 peptides were designed based on the hPD-L1 ECD amino acid sequence. Each synthesized peptide is 18 amino acids in length with 9 amino acids of overlap, which allows the minimum antigenic region of hPD-L1 ECD recognized by each VNAR to be narrowed down by step-by-step peptide mapping onto a 9-mer peptide epitope. The ELISA was performed as previously described. In brief, the 24 peptides were coated into individual wells of a 96-well Maxisorp plate. […] The binding activity was determined by ODA450.
Background: An ELISA detects its analyte on a solid surface through an enzyme-linked reagent.

The target of test [5] is T6, human PD-L1-His (human, UniProt Q9NZQ7 19-238).
T6 construct: also called hPD-L1-His; hPD-L1 His-tag format; not shown: His tag
Briefly: BLI (Octet), VNAR-hFc with hPD-L1-His, Ni-NTA sensor; at 100 nM; at a concentration of 100 nM (printed '100 nm'). In general terms: In BLI a coated tip is dipped into the sample, and binding shifts an interference pattern.

For test [6], the target named is T6, human PD-L1-His. Briefly: BLI (Octet), VNAR-hFc with hPD-L1-His, Ni-NTA sensor; at 50 nM; at a concentration of 50 nM.
Test [7] has as its target T7, human PD-L1 on MDA-MB-231 cells (human, UniProt Q9NZQ7 19-290).
T7 construct: whole, on cells; also called native PD-L1; human antigen
Briefly: flow cytometry on MDA-MB-231 cells (column 'Human'). For orientation: In flow cytometry, cells or beads pass a laser one at a time.

Test [8] concerns the target T6, human PD-L1-His. Briefly: monoclonal phage ELISA on coated antigen, detected with anti-M13-HRP. Here is the method:
as §1

A further test deals with T8, human PD-L1-hFc (human, UniProt Q9NZQ7 19-238).
T8 construct: also called hPD-L1 hFc-tag format; not shown: human Fc tag (hFc)
Described as above. How it is done:
as §1

Test [9] concerns the target T9, human PD-L1 (hPD-L1) protein (human, UniProt Q9NZQ7 19-238).
T9 construct: also called hPD-L1 ECD
Briefly: BLI (Octet), PD-L1 protein loaded on a Ni-NTA biosensor, VNAR binding step.

T1 sequence (Q9EP73 19-237 limits assumed): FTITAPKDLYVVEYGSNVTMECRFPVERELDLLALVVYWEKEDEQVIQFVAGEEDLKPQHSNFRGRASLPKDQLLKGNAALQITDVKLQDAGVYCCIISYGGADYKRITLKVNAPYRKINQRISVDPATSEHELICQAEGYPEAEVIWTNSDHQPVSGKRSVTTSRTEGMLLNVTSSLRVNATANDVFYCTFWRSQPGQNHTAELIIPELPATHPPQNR
T4 sequence (Q9EP73 19-237 limits assumed): as above
T6 sequence (Q9NZQ7 19-238 limits assumed): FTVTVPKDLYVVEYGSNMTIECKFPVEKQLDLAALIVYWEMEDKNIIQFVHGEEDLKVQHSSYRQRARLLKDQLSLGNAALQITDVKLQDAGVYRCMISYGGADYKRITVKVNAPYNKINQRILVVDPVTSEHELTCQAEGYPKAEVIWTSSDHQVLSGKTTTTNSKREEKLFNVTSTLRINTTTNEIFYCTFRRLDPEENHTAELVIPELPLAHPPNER
T3 sequence (Q9EP73 19-290): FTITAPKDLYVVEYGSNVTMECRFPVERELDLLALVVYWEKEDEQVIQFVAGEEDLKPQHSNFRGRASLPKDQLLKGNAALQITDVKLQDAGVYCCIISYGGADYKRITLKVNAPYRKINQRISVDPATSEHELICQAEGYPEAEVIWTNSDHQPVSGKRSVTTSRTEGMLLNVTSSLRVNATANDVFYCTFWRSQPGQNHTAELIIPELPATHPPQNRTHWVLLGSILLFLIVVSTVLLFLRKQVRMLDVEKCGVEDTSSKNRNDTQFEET
T7 sequence (Q9NZQ7 19-290): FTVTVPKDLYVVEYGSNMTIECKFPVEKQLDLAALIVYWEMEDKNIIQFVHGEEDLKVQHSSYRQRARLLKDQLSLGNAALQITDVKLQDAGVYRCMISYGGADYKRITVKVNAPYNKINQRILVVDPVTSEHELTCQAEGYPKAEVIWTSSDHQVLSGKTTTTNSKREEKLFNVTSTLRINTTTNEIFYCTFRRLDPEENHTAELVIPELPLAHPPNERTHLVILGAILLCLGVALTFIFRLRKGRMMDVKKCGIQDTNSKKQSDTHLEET
T9 sequence (Q9NZQ7 19-238 limits assumed): as the sequence (Q9NZQ7 19-238 limits assumed) above
T8 sequence (Q9NZQ7 19-238 limits assumed): as above

B1: Shark VNAR A6 (VNAR)
VNAR: ARVDQTPQTITKETGESLTINCVLRDTSYALGSTYWYRKKSGSTNEESISKGGRYVETVNSGSKSFSLRINDLRVEDSGTYRCKYSSSWQKATEGVWEAMTEYGGGTVVTVN
Take B1: in the test with mouse PD-L1-His [1], the binding result was “binds”.

B2: Shark VNAR A10 (VNAR)
VNAR: ARVDQTPRSVTKETGESLTINCVLRDTNYALGSTYWYRKKLGSTNEESISKGGRYVETVNSGSKSFSLRINDLTVEDSGTYRCKSTTPWNNLTSFTSERVTIYGGGTVVTVN
Take B2: the binding result in the test with mouse PD-L1-His [1] is “binds”.

B3: Shark VNAR A9 (VNAR)
VNAR: ARVDQTPQTITKETGESLTINCVLRDTNYALGSTYWYRKKLGSTNEESISKGGRYVETVNSGSKSFSLRINDLTVEDSGTYRCKNTSPWLTYSPWTVSGQTSYGGGTVVTVN
B3: the binding result in the test with mouse PD-L1-His [1] is “binds”.

B4: Shark VNAR B2 (VNAR)
VNAR: ARVDQTPRSVTKETGESLTINCVLRDSSYALGSTYWYRKKSGSTNEESISKGGRYVETVNSGSKSFSLRINDLTVEDSGTYRCKYTSRLRREGPLSWDGNTVYGGGTVVTVN
notes: Shark VNAR single-domain antibody from the semi-synthetic 18AA CDR3 library; also called B2 nanobody; B2 clone
For B4, the binding result with human B7-H3 is reported as “no binding”; in test [2], “binds”; in the test with mouse PD-L1-His [3], “binds”; with mouse PD-L1-hFc, “binds”.

B5: B2-His-flag (VNAR)
VNAR: ARVDQTPRSVTKETGESLTINCVLRDSSYALGSTYWYRKKSGSTNEESISKGGRYVETVNSGSKSFSLRINDLTVEDSGTYRCKYTSRLRREGPLSWDGNTVYGGGTVVTVN
notes: Soluble VNAR B2 with His and flag tags, used at 5 ug/ml in the peptide-scanning ELISA; also called nanobody B2 (peptide scanning); not shown: His tag and flag tag
With B5, the binding result in [4] was “binds”.

B6: B2-hFc (Fc fusion)
chain: ARVDQTPRSVTKETGESLTINCVLRDSSYALGSTYWYRKKSGSTNEESISKGGRYVETVNSGSKSFSLRINDLTVEDSGTYRCKYTSRLRREGPLSWDGNTVYGGGTVVTVN
notes: also called B2 VNAR-hFc fusion protein; not shown: human Fc (hFc)
Consider B6, for which the results for the Kd with human PD-L1-His [5] and with human PD-L1-His [6] were 1.7 nM and 1.4 nM, respectively.

B7: Shark VNAR A11 (VNAR)
VNAR: ARVDQTPRSVTKETGESLTINCVLRDTSYALGSTYWYRKKSGSTNEESISKGGRYVETVNSGSKSFSLRINDLTVEDSGTYRCKFKSNTEFLNPLTVSMSTIYGGGTVVTVN
notes: Shark VNAR single-domain antibody
In the case of B7, the binding result with mouse PD-L1-His [3] and in the test with mouse PD-L1-hFc was “binds” throughout.

B8: A11-His-flag (VNAR)
VNAR: ARVDQTPRSVTKETGESLTINCVLRDTSYALGSTYWYRKKSGSTNEESISKGGRYVETVNSGSKSFSLRINDLTVEDSGTYRCKFKSNTEFLNPLTVSMSTIYGGGTVVTVN
notes: Soluble VNAR A11 with His and flag tags, used at 5 ug/ml in the peptide-scanning ELISA; also called nanobody A11 (peptide scanning); not shown: His tag and flag tag
Turning to B8, the binding result in test [4] was “no binding (tested: 5 µg/ml)”.

B9: Shark VNAR C4 (VNAR)
VNAR: ARVDQTPRSVTKETGESLTINCVLRDTNYALGSTYWYRKKSGSTNEESISKGGRYVETVNSGSKSFSLRINDLTVEDSGTYRCKQSASLWIPNLLRWVPVISYGGGTVVTVN
For B9, the binding result with mouse PD-L1-His [1] is recorded as “binds”.

B10: Shark VNAR A2 (VNAR)
VNAR: ARVDQTPRSVTKETGESLTINCVLRDTSYALGSTYWYRKKLGSTNEESISKGGRYVETVNSGSKTFSLRINDLTVEDSGTYRCKVQTTWSYLSPYKIEFATVYGGGTVVTVN
Turning to B10, in the test with mouse PD-L1-His [1], the binding result is “binds”.

B11: Shark VNAR A1 (VNAR)
VNAR: ARVDQTPRSVTKETGESLTINCVLRDTNYALGSTYWYRKKSGSTNEESISKGGRYVETVNSGSKSFSLRINDLTVEDSGTYRCKTSSKPLLVSHNVWSAWTEYGGGTVVTVN
For B11, in the test with mouse PD-L1-His [1], the binding result is recorded as “binds”.

B12: Shark VNAR F5 (VNAR)
VNAR: ARVDQTPRSVTKETGESLTINCVLRDTNYALGSTYWYRKKLGSTNEESISKGGRYVETVNSGSKSFSLRINDLTVEDSGTYRCKNLGHPMYIAGAICRPLPIYGGGTVVTVN
notes: as for B7
On to B12, for which the binding result (in [7]; in test [2]; with human PD-L1-His [8]; with human PD-L1-hFc; in the test with mouse PD-L1-His [3]; in the test with mouse PD-L1-hFc) was “binds” each time.

B13: F5-hFc (Fc fusion)
chain: ARVDQTPRSVTKETGESLTINCVLRDTNYALGSTYWYRKKLGSTNEESISKGGRYVETVNSGSKSFSLRINDLTVEDSGTYRCKNLGHPMYIAGAICRPLPIYGGGTVVTVN
notes: VNAR-hFc fusion used on the Octet; also called F5 VNAR-hFc fusion protein; not shown: human Fc (hFc)
For B13, the binding result in test [9] is given as “binds”.

B14: F5-His-flag (VNAR)
VNAR: ARVDQTPRSVTKETGESLTINCVLRDTNYALGSTYWYRKKLGSTNEESISKGGRYVETVNSGSKSFSLRINDLTVEDSGTYRCKNLGHPMYIAGAICRPLPIYGGGTVVTVN
notes: Soluble VNAR F5 with His and flag tags, used at 5 ug/ml in the peptide-scanning ELISA; also called nanobody F5 (peptide scanning); not shown: His tag and flag tag
Take B14: the binding result in [4] was “binds”.

B15: Shark VNAR D12 (VNAR)
VNAR: ARVDQTPRSVTKETGESLTINCVLRDTNYALGSTYWYRKKSGSTNEESISKGGRYVETVNSGSKSFSLRINDLTVEDSGTYRCKHQSSWRRQAPRVMEMQTLYGGGTVVTVN
Consider B15, for which, in the test with mouse PD-L1-His [1], the binding result is “binds”.

B16: Shark VNAR A7 (VNAR)
VNAR: ARVDQTPRSVTKETGESLTINCVLRDTSYALGSTYWYRKKLGSTNEESISKGGRYVETVNSGSKSFSLRINDLTVEDSGTYRCKMNQRYPCDNNSWWSLYCGTTVYGGGTVVTVN
In the case of B16, the binding result with mouse PD-L1-His [1] was “binds”.

B17: Shark VNAR A3 (VNAR)
VNAR: ARVDQTPQTITKETGESLTINCVLRDSNYALGSTYWYRKKSGSTNEESISKGGRYVETVNSGSKSFSLRINDLTVEDSGTYRCKTQKAIPCNMNGYVCGVTIYGGGTVVTVN
In the case of B17, the binding result with mouse PD-L1-His [1] is recorded as “binds”.
